# Source: PMC6000670 (2018)
# B1: Sti1 (protein)
# chain: MSLTADEYKQQGNAAFTAKDYDKAIELFTKAIEVSETPNHVLYSNRSACYTSLKKFSDALNDANECVKINPSWSKGYNRLGAAHLGLGDLDEAESNYKKALELDASNKAAKEGLDQVHRTQQARQAQPDLGLTQLFADPNLIENLKKNPKTSEMMKDPQLVAKLIGYKQNPQAIGQDLFTDPRLMTIMATLMGVDLNMDDINQSNSMPKEPETSKSTEQKKDAEPQSDSTTSKENSSKAPQKEESKESEPMEVDEDDSKIEADKEKAEGNKFYKARQFDEAIEHYNKAWELHKDITYLNNRAAAEYEKGEYETAISTLNDAVEQGREMRADYKVISKSFARIGNAYHKLGDLKKTIEYYQKSLTEHRTADILTKLRNAEKELKKAEAEAYVNPEKAEEARLEGKEYFTKSDWPNAVKAYTEMIKRAPEDARGYSNRAAALAKLMSFPEAIADCNKAIEKDPNFVRAYIRKATAQIAVKEYASALETLDAARTKDAEVNNGSSAREIDQLYYKASQQRFQPGTSNETPEETYQRAMKDPEVAAIMQDPVMQSILQQAQQNPAALQEHMKNPEVFKKIQTLIAAGIIRTGR
# modifications: Hsp90 in complex with LA1011 (1 mM)
# Molecular target: Hsp90 (Saccharomyces cerevisiae, UniProt P02829)
# Sequence (P02829 whole entry): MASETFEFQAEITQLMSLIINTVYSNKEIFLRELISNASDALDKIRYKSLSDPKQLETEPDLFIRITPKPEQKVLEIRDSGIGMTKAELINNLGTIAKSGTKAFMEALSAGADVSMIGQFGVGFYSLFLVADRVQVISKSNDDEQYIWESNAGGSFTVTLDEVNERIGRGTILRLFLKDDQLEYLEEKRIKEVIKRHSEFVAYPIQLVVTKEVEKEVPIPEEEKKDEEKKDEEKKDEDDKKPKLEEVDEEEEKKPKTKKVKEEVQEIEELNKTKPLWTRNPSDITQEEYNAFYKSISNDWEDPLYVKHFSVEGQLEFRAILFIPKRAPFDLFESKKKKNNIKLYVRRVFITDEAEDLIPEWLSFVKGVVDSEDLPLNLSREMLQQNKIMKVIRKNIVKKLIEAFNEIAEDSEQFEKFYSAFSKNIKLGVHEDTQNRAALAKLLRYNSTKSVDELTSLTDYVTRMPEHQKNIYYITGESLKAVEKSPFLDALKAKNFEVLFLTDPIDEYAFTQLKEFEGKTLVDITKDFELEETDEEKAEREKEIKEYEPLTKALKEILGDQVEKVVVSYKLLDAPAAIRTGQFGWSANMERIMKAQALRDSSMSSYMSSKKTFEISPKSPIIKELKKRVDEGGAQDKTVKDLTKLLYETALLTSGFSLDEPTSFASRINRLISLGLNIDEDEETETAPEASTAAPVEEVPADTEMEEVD
# Experiment: ITC
binder,measurement,value
B1,Kd,320 nM
